The source of these data is patent publication US20220049021A1.

This test concerns the target T1, human FLT3 on AML5 cells (human) (UniProt P36888).
T1 sequence (looked up): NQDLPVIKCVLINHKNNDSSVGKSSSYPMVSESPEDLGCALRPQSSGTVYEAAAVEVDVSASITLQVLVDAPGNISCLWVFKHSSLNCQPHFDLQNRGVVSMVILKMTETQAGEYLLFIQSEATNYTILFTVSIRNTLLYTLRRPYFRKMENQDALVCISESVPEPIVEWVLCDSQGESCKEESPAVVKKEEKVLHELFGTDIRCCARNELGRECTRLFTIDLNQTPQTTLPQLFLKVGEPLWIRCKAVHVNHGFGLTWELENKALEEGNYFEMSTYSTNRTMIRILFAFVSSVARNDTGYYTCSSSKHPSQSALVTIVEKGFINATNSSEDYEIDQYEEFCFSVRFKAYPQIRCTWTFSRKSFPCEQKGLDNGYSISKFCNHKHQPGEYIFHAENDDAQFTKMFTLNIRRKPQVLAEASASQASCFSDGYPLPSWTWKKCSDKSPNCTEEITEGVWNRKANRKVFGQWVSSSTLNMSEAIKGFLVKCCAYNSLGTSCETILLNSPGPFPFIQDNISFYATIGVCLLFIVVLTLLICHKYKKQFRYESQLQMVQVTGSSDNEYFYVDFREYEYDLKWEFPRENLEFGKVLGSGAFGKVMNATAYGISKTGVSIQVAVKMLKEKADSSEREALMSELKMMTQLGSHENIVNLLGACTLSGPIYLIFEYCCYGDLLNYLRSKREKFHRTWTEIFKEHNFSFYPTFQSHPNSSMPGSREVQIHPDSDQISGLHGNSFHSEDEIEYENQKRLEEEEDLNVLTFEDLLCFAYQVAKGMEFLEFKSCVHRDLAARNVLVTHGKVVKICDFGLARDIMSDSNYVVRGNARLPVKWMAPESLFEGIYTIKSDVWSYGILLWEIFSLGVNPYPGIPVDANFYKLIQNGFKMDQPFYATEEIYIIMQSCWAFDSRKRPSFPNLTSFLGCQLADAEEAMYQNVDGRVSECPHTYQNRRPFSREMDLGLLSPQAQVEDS
The test is described as follows: cell-based or functional assay.

human FLT3-ligand (H8Y) human hingeless IgG1 fusion protein (SEQ ID NO:22) (Fc fusion), sequence (chain): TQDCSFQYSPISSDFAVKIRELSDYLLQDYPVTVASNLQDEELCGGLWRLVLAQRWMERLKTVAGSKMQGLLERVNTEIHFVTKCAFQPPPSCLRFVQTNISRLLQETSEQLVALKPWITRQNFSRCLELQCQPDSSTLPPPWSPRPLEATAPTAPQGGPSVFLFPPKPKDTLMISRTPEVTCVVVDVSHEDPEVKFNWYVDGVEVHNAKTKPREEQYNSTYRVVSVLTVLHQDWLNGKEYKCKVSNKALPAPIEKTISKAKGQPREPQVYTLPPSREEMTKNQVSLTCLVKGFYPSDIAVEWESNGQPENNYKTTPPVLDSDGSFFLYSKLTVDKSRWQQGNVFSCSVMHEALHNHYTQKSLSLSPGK
human FLT3-ligand human IgG1 fusion protein (SEQ ID NO:21) (Fc fusion), sequence (chain): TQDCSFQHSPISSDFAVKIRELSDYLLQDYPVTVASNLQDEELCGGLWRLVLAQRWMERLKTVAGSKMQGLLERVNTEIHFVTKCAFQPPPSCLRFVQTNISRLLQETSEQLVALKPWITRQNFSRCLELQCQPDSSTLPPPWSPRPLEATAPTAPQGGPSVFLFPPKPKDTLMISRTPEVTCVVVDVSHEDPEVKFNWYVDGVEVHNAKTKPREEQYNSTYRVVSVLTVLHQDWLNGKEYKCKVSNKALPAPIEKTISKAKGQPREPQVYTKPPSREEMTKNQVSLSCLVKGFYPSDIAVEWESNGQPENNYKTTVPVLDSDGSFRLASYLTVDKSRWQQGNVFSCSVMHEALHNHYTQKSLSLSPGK

Consider “human FLT3-ligand (H8Y) human hingeless IgG1 fusion protein (SEQ ID NO:22) (Fc fusion)”, for which the EC50 (nM), Inducing Proliferation of AML5 Cells was determined as 0.014 nM and the potency in AML5 proliferation against SEQ ID NO:1 stood at 2.5 fold.
The like results for “human FLT3-ligand (H8Y+K84E) human hingeless IgG1 fusion protein (SEQ ID NO:24) (Fc fusion)” were, in that order, 0.013 nM and 2.5 fold.
For “human FLT3-ligand (K84E) human hingeless IgG1 fusion protein (SEQ ID NO:23) (Fc fusion)” the same measures were 0.013 nM and 2.5 fold.
With “human FLT3-ligand human IgG1 fusion protein (SEQ ID NO:21) (Fc fusion)”, the EC50 (nM), Inducing Proliferation of AML5 Cells came to 0.035 nM.
